From the supplement of paper PMC7877785
± gives the uncertainty stated by the source.

Assay: self-splicing fitness, log relative to wild type (ln ratio); higher = more splicing; Tetrahymena group I intron in knt gene, E. coli kanamycin selection, DiMSum; sequences stand for … in CUCUCU…GGAGGGAAAAGUUAUCAGGCAUGCACCUGGUAGCUAGUCUUUAAACCAAUAGAUUGCAUCGGUUUAAAAGGCAAGACCGUCAAAUUGCGGGAAAGGGGUCAACAGCCGUUCAGUACCAAGUCUCAGGGGAAACUUUGAGAUGGCCUUGCAAAGGGUAUGGUAAUAAGCUGACGGACAUGGUCCUAACCACGCAGCCAAGUCCUAAGUCAACAGAUCUUCUGUUGAUAUGGAUGCAGUUCACAGACUAAAUGUCGGUCGGGGAAGAUGUAUUCUUCUCAUAAGAUAUAGUCGGACCUCUCCUUAAUGGGAGCUAGCGGAUGAAGUGAUGCAACACUGGAGCCGCUGGGAACUAAUUUGUAUGCGAAAGUAUAUUGAUUAGUUUUGGAGUACUCGUGGUCG
In short: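 Colonies from six replicate transformations of E. coli BL21(DE3) were pooled and amplicon-sequenced on an Illumina HiSeq 2500. The library placed an intron with all eight P1ex-region nucleotides randomised inside the knt kanamycin-resistance gene on pET-22b(+), and cells grew overnight at 37°C or 30°C on LB agar with or without 25 μg/mL kanamycin (plus 100 μg/mL carbenicillin, 50 μM IPTG, 0.2% rhamnose). Fitness is the DiMSum error-weighted combination of wild-type-normalised replicate fold changes, kanamycin versus none.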

| Sequence | self-splicing fitness (ln) (30 °C) | self-splicing fitness (ln) (37 °C) |
| --- | --- | --- |
| AGCUAGCAAUAUUACGGCGG | -1.13 ± 0.12 | -0.547 ± 0.14 |
| AGCUAGCAAUAUUACGGUUA | -0.191 ± 0.067 | 0.383 ± 0.073 |
| AGCUAGCAAUAUUACGUAGG | -3.29 ± 0.13 | -1.27 ± 0.13 |
| AGCUAGCAAUAUUACGUGCA | -0.188 ± 0.069 | 0.247 ± 0.096 |
| AGGAAGCAAUAUUACGACAG | -2.74 ± 0.19 | -1.64 ± 0.18 |
| AGGAAGCAAUAUUACGACAU | -0.63 ± 0.014 | -0.543 ± 0.033 |
| AGGAAGCAAUAUUACGACGG | -1.98 ± 0.17 | -0.95 ± 0.23 |
| AGGAAGCAAUAUUACGAGAG | -3.03 ± 0.14 | -2.29 ± 0.17 |
| AGGAAGCAAUAUUACGAUUA | -1.47 ± 0.08 | -1.21 ± 0.069 |
| AGGAAGCAAUAUUACGAUUC | -1.41 ± 0.15 | -2.53 ± 0.18 |
| AGGAAGCAAUAUUACGCACA | -0.546 ± 0.13 | 0.104 ± 0.19 |
| AGGAAGCAAUAUUACGCCAC | -2.13 ± 0.24 | -2.64 ± 0.41 |
| AGGAAGCAAUAUUACGCGGC | – | -1.98 ± 0.44 |
| AGGAAGCAAUAUUACGCUAA | -1.19 ± 0.13 | -1.89 ± 0.27 |
| AGGAAGCAAUAUUACGCUCA | -0.332 ± 0.13 | -0.339 ± 0.16 |
| AGGAAGCAAUAUUACGCUGG | -3.46 ± 0.38 | -1.08 ± 0.27 |
| AGGAAGCAAUAUUACGCUUC | -2.44 ± 0.28 | – |
| AGGAAGCAAUAUUACGGAGC | -2.78 ± 0.21 | -1.61 ± 0.3 |
| AGGAAGCAAUAUUACGGGCA | -1.55 ± 0.21 | -1.13 ± 0.23 |
| AGGAAGCAAUAUUACGUAGA | -1.86 ± 0.099 | -2.42 ± 0.15 |
| AGGAAGCAAUAUUACGUGGA | -3.05 ± 0.19 | -1.16 ± 0.13 |
| AGGAAGCAAUAUUACGUGGC | – | -3.3 ± 0.43 |
| AGGAAGCAAUAUUACGUGUU | -3.8 ± 0.21 | -0.935 ± 0.14 |
| AGGAAGCAAUAUUACGUUAC | -2.66 ± 0.14 | -3.18 ± 0.28 |
| AGGAAGCAAUAUUACGUUAU | -3.44 ± 0.18 | -1.6 ± 0.17 |

| Sequence | self-splicing fitness (ln) (30 °C) | self-splicing fitness (ln) (37 °C) |
| --- | --- | --- |
| AGGAAGCAAUAUUACGUUCC | -2.96 ± 0.39 | -2.59 ± 0.48 |
| AGGCAGCAAUAUUACGAAGG | -1.9 ± 0.22 | -1.56 ± 0.27 |
| AGGCAGCAAUAUUACGACGG | -2.49 ± 0.16 | -0.746 ± 0.22 |
| AGGCAGCAAUAUUACGAGCC | -2 ± 0.14 | -1.4 ± 0.21 |
| AGGCAGCAAUAUUACGAGUC | -2.29 ± 0.14 | -2.34 ± 0.2 |
| AGGCAGCAAUAUUACGCAUC | -3.99 ± 0.19 | -1.04 ± 0.11 |
| AGGCAGCAAUAUUACGCGAG | -2.49 ± 0.13 | -1.12 ± 0.13 |
| AGGCAGCAAUAUUACGGAAU | -1.67 ± 0.057 | -0.844 ± 0.084 |
| AGGCAGCAAUAUUACGGAUC | -2.19 ± 0.1 | -0.495 ± 0.099 |
| AGGCAGCAAUAUUACGGAUU | -1.08 ± 0.077 | 0.356 ± 0.098 |
| AGGCAGCAAUAUUACGGCUC | -0.958 ± 0.17 | -0.371 ± 0.19 |
| AGGCAGCAAUAUUACGGGUU | -3.33 ± 0.22 | -1.01 ± 0.12 |
| AGGCAGCAAUAUUACGGUCC | -1.61 ± 0.15 | -1.64 ± 0.26 |
| AGGCAGCAAUAUUACGGUGA | -1.37 ± 0.14 | -0.711 ± 0.11 |
| AGGCAGCAAUAUUACGGUGG | -3.05 ± 0.16 | -2.88 ± 0.23 |
| AGGCAGCAAUAUUACGUAGA | -2.33 ± 0.15 | -0.171 ± 0.11 |
| AGGCAGCAAUAUUACGUAUA | -3.08 ± 0.15 | -1.56 ± 0.12 |
| AGGCAGCAAUAUUACGUGCU | -2.46 ± 0.12 | -1.5 ± 0.1 |
| AGGCAGCAAUAUUACGUUGC | -4.18 ± 0.36 | -2.13 ± 0.29 |
| AGGGAGCAAUAUUACGAUAA | – | -2.23 ± 0.42 |
| AGGGAGCAAUAUUACGAUCG | -2.68 ± 0.27 | -2.19 ± 0.46 |
| AGGGAGCAAUAUUACGAUGG | – | -1.29 ± 0.32 |
| AGGGAGCAAUAUUACGCAGU | -2.41 ± 0.47 | -1.44 ± 0.33 |
| AGGGAGCAAUAUUACGCCAA | – | -2.67 ± 0.38 |
| AGGGAGCAAUAUUACGCGAA | -1.94 ± 0.4 | -1.48 ± 0.29 |

| Sequence | self-splicing fitness (ln) (30 °C) | self-splicing fitness (ln) (37 °C) |
| --- | --- | --- |
| AGGGAGCAAUAUUACGCUCG | -2.31 ± 0.27 | -2.12 ± 0.3 |
| AGGGAGCAAUAUUACGGCAC | – | -1.77 ± 0.42 |
| AGGGAGCAAUAUUACGUACU | -1.74 ± 0.26 | -0.673 ± 0.35 |
| AGGGAGCAAUAUUACGUCGC | -1.42 ± 0.34 | – |
| AGGGAGCAAUAUUACGUCGG | – | -1.52 ± 0.38 |
| AGGGAGCAAUAUUACGUGAA | -3.18 ± 0.32 | -2.53 ± 0.3 |
| AGGGAGCAAUAUUACGUUUG | -3.56 ± 0.39 | -2.66 ± 0.35 |
| AGGUAGCAAUAUUACGAAUC | -3.462 ± 0.031 | -2.2 ± 0.041 |
| AGGUAGCAAUAUUACGAAUU | -1.85 ± 0.017 | -0.996 ± 0.035 |
| AGGUAGCAAUAUUACGAGGA | -3.39 ± 0.034 | -2.43 ± 0.041 |
| AGGUAGCAAUAUUACGAGUA | -2.415 ± 0.023 | -1.52 ± 0.035 |
| AGGUAGCAAUAUUACGAUUG | -3.575 ± 0.026 | -2.44 ± 0.04 |
| AGGUAGCAAUAUUACGCAAG | -2.25 ± 0.018 | -1.26 ± 0.034 |
| AGGUAGCAAUAUUACGCCCA | 0.15 ± 0.02 | -0.0344 ± 0.039 |
| AGGUAGCAAUAUUACGCCUC | -3.88 ± 0.05 | -3.34 ± 0.068 |
| AGGUAGCAAUAUUACGCCUG | -0.743 ± 0.017 | -0.212 ± 0.035 |
| AGGUAGCAAUAUUACGCGAG | -1.32 ± 0.014 | -0.6 ± 0.032 |
| AGGUAGCAAUAUUACGCGUU | -1.888 ± 0.015 | -0.903 ± 0.033 |
| AGGUAGCAAUAUUACGCUAA | -1.66 ± 0.018 | -0.802 ± 0.035 |
| AGGUAGCAAUAUUACGCUAG | -4.002 ± 0.038 | -2.89 ± 0.046 |
| AGGUAGCAAUAUUACGGACG | -1.46 ± 0.015 | -0.546 ± 0.034 |
| AGGUAGCAAUAUUACGGCAC | -0.781 ± 0.017 | -0.277 ± 0.035 |
| AGGUAGCAAUAUUACGGCCA | 0.159 ± 0.018 | 0.165 ± 0.037 |
| AGGUAGCAAUAUUACGGCGC | -0.0707 ± 0.015 | 0.163 ± 0.033 |
| AGGUAGCAAUAUUACGGGGG | -3.715 ± 0.031 | -2.94 ± 0.044 |

| Sequence | self-splicing fitness (ln) (30 °C) | self-splicing fitness (ln) (37 °C) |
| --- | --- | --- |
| AGGUAGCAAUAUUACGGGUG | -3.141 ± 0.021 | -1.99 ± 0.036 |
| AGGUAGCAAUAUUACGGUAU | -1.957 ± 0.015 | -1.07 ± 0.033 |
| AGGUAGCAAUAUUACGUAAC | -2.092 ± 0.019 | -1.18 ± 0.035 |
| AGGUAGCAAUAUUACGUAUU | -2.78 ± 0.018 | -1.45 ± 0.035 |
| AGGUAGCAAUAUUACGUCAC | -3.764 ± 0.036 | -2.23 ± 0.042 |
| AGGUAGCAAUAUUACGUCCA | -0.144 ± 0.015 | -0.214 ± 0.035 |
| AGGUAGCAAUAUUACGUUCC | -0.904 ± 0.018 | -0.623 ± 0.036 |
| AGGUAGCAAUAUUACGUUCU | -0.768 ± 0.014 | -0.545 ± 0.033 |
| AGUAAGCAAUAUUACGAAUA | -1.84 ± 0.38 | – |
| AGUAAGCAAUAUUACGACAG | -2.95 ± 0.2 | -1.94 ± 0.22 |
| AGUAAGCAAUAUUACGAUCG | -0.735 ± 0.17 | -0.248 ± 0.19 |
| AGUAAGCAAUAUUACGAUCU | 0.14 ± 0.15 | -0.333 ± 0.14 |
| AGUAAGCAAUAUUACGCAUA | -2.31 ± 0.25 | -1.38 ± 0.15 |
| AGUAAGCAAUAUUACGCGAC | -3.46 ± 0.23 | -2.63 ± 0.25 |
| AGUAAGCAAUAUUACGCGUA | -1.73 ± 0.15 | -0.118 ± 0.16 |
| AGUAAGCAAUAUUACGCUUU | -3.63 ± 0.26 | -2.36 ± 0.22 |
| AGUAAGCAAUAUUACGGAAU | -2.75 ± 0.14 | -1.5 ± 0.15 |
| AGUAAGCAAUAUUACGGACC | -0.0938 ± 0.13 | 0.0977 ± 0.16 |
| AGUAAGCAAUAUUACGGGAC | -3.47 ± 0.26 | -2.45 ± 0.26 |
| AGUAAGCAAUAUUACGGUAA | -2.63 ± 0.28 | -1.68 ± 0.15 |
| AGUAAGCAAUAUUACGGUAU | -2.52 ± 0.17 | -1.35 ± 0.13 |
| AGUAAGCAAUAUUACGUGUC | -3.49 ± 0.21 | -2.24 ± 0.2 |
| AGUAAGCAAUAUUACGUUGC | -4.14 ± 0.21 | -2.21 ± 0.17 |
